Key:
[1] = target: CvkR (Alr3614), MerR-type transcriptional regulator of the Anabaena sp. PCC 7120 CAST system, 150-residue form CvkR-S (Anabaena (Nostoc) sp. PCC 7120); experiment: SEC; analytical gel filtration, Superdex 75 10/300 GL, 10 mM Tris-HCl pH 8.8, 100 mM NaCl, 2 mM beta-mercaptoethanol; ~500 uL untagged protein at ~0.6 mg/mL; calibrated with LMW standards; self-association (dimer)
[2] = target: CvkR (Alr3614) (Anabaena sp. PCC 7120) (UniProt A0ACD6B984); experiment: DNase I footprinting; conditions: EMSA: 10 mM Tris-HCl pH 8.0, 25 mM MgCl2, 50 mM NaCl, 1 mM DTT, 1 mM EDTA, 50 ug/mL poly(dI-dC), 0.01% NP-40, 10% glycerol, 2 nM probe, 25 C 30 min …
[3] = target: CvkR R42E (Anabaena (Nostoc) sp. PCC 7120); experiment: SEC; analytical gel filtration, Superdex 75 10/300 GL, 10 mM Tris-HCl pH 8.8, 100 mM NaCl, 2 mM beta-mercaptoethanol; ~500 uL untagged protein at ~0.6 mg/mL; calibrated with LMW standards; self-association (dimer)
[4] = target: CvkRmut (R19A-R20A-Q23A-K40A-R42A-N66A) (Anabaena (Nostoc) sp. PCC 7120); experiment: as above

Chain of CvkR (Alr3614) (Anabaena sp. PCC 7120) (A0ACD6B984 entry or part of it): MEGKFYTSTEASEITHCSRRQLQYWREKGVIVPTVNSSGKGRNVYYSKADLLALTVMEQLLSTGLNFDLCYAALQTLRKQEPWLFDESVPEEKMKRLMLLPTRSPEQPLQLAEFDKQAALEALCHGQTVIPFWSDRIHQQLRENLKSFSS

CvkR (Alr3614), MerR-type transcriptional regulator of the Anabaena sp. PCC 7120 CAST system, 150-residue form CvkR-S (natural protein)
stoichiometry N [1]: 2

AACTCCTTTCTCTCGCCAATACTGCAACTGGCGGCGAGAGCAATGAGTAATTTCTGATGCTTCTGTGCTTGTGTAGAACTTTCCTTCCATAAGAAACATCCTATAGAAGCATCTTCTAAAACACATTAGTGCTTTGTATAACATTATGTGTTTTGTATGGTATTTTATTTTTATGAGCCAAAAAACTATTCAATGTCGCTTAATTGCCAGTGAATCTACCCGCCAAAAACTCTGGAAGTTAATGGCAGAATCGAACACACCTCTAATTAACGAACTGCTTCAGCAGC (double strand) [Pcas12k footprint probe]
binding [2]: binds

CvkR R42E (natural protein)
stoichiometry N [3]: 2

CvkRmut (R19A-R20A-Q23A-K40A-R42A-N66A) (natural protein)
stoichiometry N [4]: 2

From PMC9938897
